test system: Escherichia coli TOP10; experiment: shrunken log2 fold change of peptide-encoding DNA abundance (4.5 h post-induction vs induction); higher = less antimicrobial activity (less host growth inhibition); conditions: time post-induction: 4.5 h; library: site-saturation at positions 5, 18, 19, 20
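Note: peptides expressed intracellularly from a pBAD plasmid library in pooled LB shake-flask culture, induced with 0.3% L-arabinose, DNA abundance read by NGS, three biological replicates, DESeq2 with apeglm shrinkage.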

| Sequence | shrunken log2 fold change |
| --- | --- |
| RRIRIRPPRLPRPRPRPESVPRP | -0.00682 |
| RRIRKRPPRLPRPRPRPGKPPRP | 0.115 |
| RRIRTRPPRLPRPRPRPTCCPRP | -0.0411 |
| RRIRNRPPRLPRPRPRPEGAPRP | 2.8 |
| RRIRQRPPRLPRPRPRPAHPPRP | 0.181 |
| RRIRMRPPRLPRPRPRPTNFPRP | -0.0912 |
| RRIRWRPPRLPRPRPRPRYMPRP | -0.139 |
| RRIRDRPPRLPRPRPRPQAFPRP | -0.184 |
| RRIRTRPPRLPRPRPRPMCAPRP | -0.0676 |
| RRIRLRPPRLPRPRPRPSYNPRP | -0.588 |
| RRIRARPPRLPRPRPRPDMVPRP | 0.308 |
| RRIRQRPPRLPRPRPRPRMDPRP | -0.0734 |
| RRIRWRPPRLPRPRPRPREKPRP | 1.16 |
| RRIRSRPPRLPRPRPRPRFSPRP | 0.44 |
| RRIRQRPPRLPRPRPRPQCCPRP | -0.0133 |
| RRIRDRPPRLPRPRPRPKMIPRP | -0.185 |
| RRIRQRPPRLPRPRPRPWLRPRP | -0.112 |
| RRIRLRPPRLPRPRPRPAADPRP | 0.832 |
| RRIRNRPPRLPRPRPRPRPVPRP | 0.303 |
| RRIRRRPPRLPRPRPRPGRAPRP | 0.648 |
| RRIRKRPPRLPRPRPRPISWPRP | -0.0574 |
| RRIRRRPPRLPRPRPRPEEDPRP | -0.0235 |

| Sequence | shrunken log2 fold change |
| --- | --- |
| RRIRIRPPRLPRPRPRPYFRPRP | -0.0907 |
| RRIRHRPPRLPRPRPRPGVAPRP | 0.207 |
| RRIRRRPPRLPRPRPRPPLDPRP | 1.24 |
| RRIRGRPPRLPRPRPRPWWVPRP | 0.0839 |
| RRIRCRPPRLPRPRPRPQPVPRP | 0.399 |
| RRIRTRPPRLPRPRPRPSCSPRP | -0.16 |
| RRIRLRPPRLPRPRPRPGGPPRP | 1.36 |
| RRIRWRPPRLPRPRPRPCMLPRP | -0.215 |
| RRIRNRPPRLPRPRPRPSHSPRP | -0.182 |
| RRIRKRPPRLPRPRPRPTIPPRP | 0.263 |
| RRIRGRPPRLPRPRPRPNHEPRP | 0.0434 |
| RRIRDRPPRLPRPRPRPNTAPRP | -0.0636 |
| RRIRWRPPRLPRPRPRPLCEPRP | 0.337 |
| RRIRERPPRLPRPRPRPKTLPRP | -0.185 |
| RRIRPRPPRLPRPRPRPVTDPRP | -0.393 |
| RRIRVRPPRLPRPRPRPLSRPRP | -0.132 |
| RRIRTRPPRLPRPRPRPNPQPRP | 0.125 |
| RRIRVRPPRLPRPRPRPPQAPRP | 0.0808 |
| RRIRHRPPRLPRPRPRPKNNPRP | -0.74 |
| RRIRCRPPRLPRPRPRPGQWPRP | -0.125 |
| RRIRMRPPRLPRPRPRPFPNPRP | -0.288 |
| RRIRPRPPRLPRPRPRPMWIPRP | -0.237 |

| Sequence | shrunken log2 fold change |
| --- | --- |
| RRIRIRPPRLPRPRPRPKCDPRP | -0.352 |
| RRIRVRPPRLPRPRPRPLPAPRP | 0.449 |
| RRIRMRPPRLPRPRPRPPHAPRP | 1.65 |
| RRIRCRPPRLPRPRPRPTDSPRP | -0.118 |
| RRIRLRPPRLPRPRPRPQATPRP | -0.0468 |
| RRIRMRPPRLPRPRPRPMIVPRP | -0.101 |
| RRIRFRPPRLPRPRPRPDKAPRP | -0.0262 |
| RRIRCRPPRLPRPRPRPYPVPRP | -0.441 |
| RRIRNRPPRLPRPRPRPQFSPRP | -0.306 |
| RRIRPRPPRLPRPRPRPSARPRP | 0.186 |
| RRIRTRPPRLPRPRPRPQHFPRP | -0.0212 |
| RRIRHRPPRLPRPRPRPLRAPRP | 0.513 |
| RRIRTRPPRLPRPRPRPWCLPRP | -0.596 |
| RRIRCRPPRLPRPRPRPRGAPRP | 0.766 |
| RRIRCRPPRLPRPRPRPYHPPRP | -0.539 |
| RRIRFRPPRLPRPRPRPGCVPRP | 0.15 |
| RRIRQRPPRLPRPRPRPGKKPRP | 0.0943 |
| RRIRHRPPRLPRPRPRPTADPRP | 0.202 |
| RRIRQRPPRLPRPRPRPEKIPRP | 2.55 |
| RRIRDRPPRLPRPRPRPTCSPRP | 0.112 |
| RRIRRRPPRLPRPRPRPYKMPRP | 0.187 |
| RRIRWRPPRLPRPRPRPYCKPRP | -0.864 |

| Sequence | shrunken log2 fold change |
| --- | --- |
| RRIRQRPPRLPRPRPRPQRNPRP | -0.23 |
| RRIRDRPPRLPRPRPRPCHMPRP | 0.00148 |
| RRIRLRPPRLPRPRPRPIFEPRP | -0.0366 |
| RRIRIRPPRLPRPRPRPLQGPRP | -0.182 |
| RRIRGRPPRLPRPRPRPRVHPRP | 0.666 |
| RRIRSRPPRLPRPRPRPPHIPRP | -0.0943 |
| RRIRDRPPRLPRPRPRPEKIPRP | 0.652 |
| RRIRHRPPRLPRPRPRPYDFPRP | -0.0434 |
| RRIRARPPRLPRPRPRPGRRPRP | 0.339 |
| RRIRWRPPRLPRPRPRPGRKPRP | -0.0532 |
| RRIRPRPPRLPRPRPRPTFGPRP | 0.191 |
| RRIRMRPPRLPRPRPRPGPYPRP | -0.149 |
| RRIRLRPPRLPRPRPRPHRWPRP | -0.0172 |
| RRIRPRPPRLPRPRPRPPRLPRP | 0.406 |
| RRIRPRPPRLPRPRPRPIPTPRP | 0.00223 |
| RRIRKRPPRLPRPRPRPKPGPRP | 1.2 |
| RRIRDRPPRLPRPRPRPHCAPRP | 0.143 |
| RRIRWRPPRLPRPRPRPESKPRP | 0.268 |
| RRIRKRPPRLPRPRPRPVYEPRP | -0.115 |
| RRIRIRPPRLPRPRPRPMFLPRP | -0.624 |
| RRIRMRPPRLPRPRPRPWWLPRP | 0.0657 |
| RRIRDRPPRLPRPRPRPFMQPRP | 0.0183 |

| Sequence | shrunken log2 fold change |
| --- | --- |
| RRIRNRPPRLPRPRPRPKIMPRP | 0.0385 |
| RRIRKRPPRLPRPRPRPWTAPRP | 0.00666 |
| RRIRRRPPRLPRPRPRPHKHPRP | -0.165 |
| RRIRRRPPRLPRPRPRPFIYPRP | -0.194 |
| RRIRPRPPRLPRPRPRPAHIPRP | -0.205 |
| RRIRIRPPRLPRPRPRPFDDPRP | 0.0183 |
| RRIRVRPPRLPRPRPRPEKMPRP | -0.3 |
| RRIRGRPPRLPRPRPRPQMNPRP | 0.355 |
| RRIRSRPPRLPRPRPRPRQLPRP | 0.0648 |
| RRIRHRPPRLPRPRPRPGPGPRP | 0.282 |
| RRIRHRPPRLPRPRPRPRHAPRP | 0.164 |
| RRIRCRPPRLPRPRPRPQRFPRP | -0.0259 |
| RRIRARPPRLPRPRPRPGPIPRP | 0.341 |
| RRIRYRPPRLPRPRPRPQYLPRP | -3.15 |
| RRIRCRPPRLPRPRPRPGAHPRP | 0.0157 |
| RRIRKRPPRLPRPRPRPLTDPRP | -0.0168 |
| RRIRERPPRLPRPRPRPTHFPRP | -0.382 |
| RRIRPRPPRLPRPRPRPFGSPRP | 0.0959 |
| RRIRPRPPRLPRPRPRPRHMPRP | 0.116 |
| RRIRNRPPRLPRPRPRPIPWPRP | -0.102 |
| RRIRFRPPRLPRPRPRPEVKPRP | -0.00444 |

Reference: the supplement of paper PMC9112550, “Optimization of the antimicrobial peptide Bac7 by deep mutational scanning” (BMC Biology, 2022)
